{
  "source": "paper PMC11192315",
  "about": "(PLOS Pathogens, 2024)",
  "key": {"[1]": {"target": "T1, SARS-CoV-2 RBD, wild type (Wuhan-Hu-1) (SARS-CoV-2, UniProt P0DTC2)", "test": "cell-based or functional assay"}, "[2]": {"target": "T1, SARS-CoV-2 RBD, wild type (Wuhan-Hu-1)", "test": "ELISA", "conditions": "both partners purified"}, "[3]": {"target": "RBD domain (333-530) of SARS-CoV-2 WT Spike (SARS-CoV-2, UniProt P0DTC2)", "test": "crystal structure", "conditions": "both partners purified"}},
  "data": [
    {"binder": "JH-8B (human IgG mAb) (antibody, V domains shown) VH: EVQLVESGGGLIQPGGSLRLSCAASGVTVSSNYMSWVRQAPGKGLEWISLIYSGGSTYYADSVKGRFTISRDNSKNTLYLQMNSLRAEDTAVYYCARELDIVGATDIWGQGTMVTVSS VL: not shown", "values": [
      {"measurement": "IC50, neutralisation of pseudotyped lentivirus with WT spike", "setting": "[1]", "value": 9, "unit": "ng/mL"}
    ]},
    {"binder": "JE-5C (human IgG mAb) (antibody, V domains shown) VH: EVQLLESGGGLVQPGGSLRLSCAASGVTVTSNYMSWVRQAPGKGLEWVSVIYSGGSTYYADSVKGRFTISRHNSKNTLYLQMNSLRAEDTAVYYCARDLREAGGMDVWGQGTTVTVSS VL: DIVMTQSPSSLSASVGDRVTITCQASQDINNYLNWYQQKPGKAPKLLIYDASNLETGVPSRFSGSGSGTDFTFTISSLQPEDIATYYCQQFDNLPWTFGQGTKVEIR", "values": [
      {"measurement": "binding result", "setting": "[2]", "value": "binds"}
    ]},
    {"binder": "JE-5C Fab (Fab, V domains shown) VH: EVQLLESGGGLVQPGGSLRLSCAASGVTVTSNYMSWVRQAPGKGLEWVSVIYSGGSTYYADSVKGRFTISRHNSKNTLYLQMNSLRAEDTAVYYCARDLREAGGMDVWGQGTTVTVSS VL: DIVMTQSPSSLSASVGDRVTITCQASQDINNYLNWYQQKPGKAPKLLIYDASNLETGVPSRFSGSGSGTDFTFTISSLQPEDIATYYCQQFDNLPWTFGQGTKVEIR", "values": [
      {"measurement": "binding result", "setting": "[3]", "value": "binds"}
    ]},
    {"binder": "JM-1A Fab (Fab, V domains shown) VH: QVQLQQSGPGLVKPSGTLSLTCAVSGASISSGDWWSWVRQSPGRGLEWIGGIFHSGTTNYSPSLKSRVTMSVDQPKNQFSLHLTSVTAADTAVYYCARMRGIFDYWGQGTLVTVSS VL: DIQLTQSPSSLSVSVGDRVTITCRASQAISNSLAWYQQKPGKAPKLLLYAASTLESGVPSRFSGSGSGTDFTLTISSLQPEDFATYYCQHYYSTPFFGGGTKVEIK", "values": [
      {"measurement": "binding result", "setting": "[3]", "value": "binds"}
    ]},
    {"binder": "JM-1A (human IgG mAb) (antibody, V domains shown) VH: QVQLQQSGPGLVKPSGTLSLTCAVSGASISSGDWWSWVRQSPGRGLEWIGGIFHSGTTNYSPSLKSRVTMSVDQPKNQFSLHLTSVTAADTAVYYCARMRGIFDYWGQGTLVTVSS VL: DIQLTQSPSSLSVSVGDRVTITCRASQAISNSLAWYQQKPGKAPKLLLYAASTLESGVPSRFSGSGSGTDFTLTISSLQPEDFATYYCQHYYSTPFFGGGTKVEIK", "values": [
      {"measurement": "binding result", "setting": "[2]", "value": "binds"}
    ]},
    {"binder": "FI-3A (Class 1 human mAb) (antibody, V domains shown) VH: EVQLLESGGGLIQPGGSLRLSCAASGFTVSSNYMSWVRQAPGKGLEWVSVIYSGGSTYYADSVKGRFTISRDNSKNTLYLQMNSLRAEDTAVYYCARDHVRPGMNIWGQGTMVTVSS VL: not shown", "values": [
      {"measurement": "binding result", "setting": "[2]", "value": "binds"}
    ]},
    {"binder": "C121 (Class 2 human mAb) (antibody, V domains shown) VH: not shown VL: QSALTQPASVSGSPGQSITISCTGTSSDVGSYNLVSWYQQHPGKAPKLMIYEGSKRPSGVSNRFSGSKSGNTASLTISGLQAEDEADYYCCSYAGSSTLVFGGGTKLTVL", "values": [
      {"measurement": "binding result", "setting": "[2]", "value": "binds"}
    ]},
    {"binder": "FD-11A (Class 3 human mAb) (antibody, V domains shown) VH: EVQLVESGGGVVQPGRSLRLSCAASGFTFSSYGMHWVRQAPGKGLEWVAVIWYDGSNKYYADSVKGRFTISRDNSKNTLYLQMNSLRAEDTAVYYCAKGPDILTGYYNYYYYGMDVWGQGTMVTVSS VL: QSVLTQPPSVSGAPGQRVTISCTGSSSNIGAGYDVHWYQQLPGTAPKLLIYGNSNRPSGVPDRFSGSKSGTSASLAITGLQAEDEADYYCQSYDSSLSGFYVVFGGGTKLTVL", "values": [
      {"measurement": "binding result", "setting": "[2]", "value": "binds"}
    ]},
    {"binder": "JL-8C (human IgG mAb) (antibody, V domains shown) VH: QVQLVQSGAEVKKPGESLKISCKGSGYSFTSHWIGWVRQKPGKGLEWVGIIHPYDSDTRYSPSFQGLVTFSADKSSSTAYLQWSSLQASDTAIYYCARRTDQYGSHGMDVWGQGTTVTVSS VL: QSVLTQPPSASGTPGQRVTISCSGGSSNIGGNPVNWYQQLPATAPKLLIYNNNQRPSGVSDRFSGSKSGTSASLAISGLQSVDEADYFCAAWDDSLNGVLFGGGTKLTVL", "values": [
      {"measurement": "binding result", "setting": "[2]", "value": "binds"}
    ]},
    {"binder": "IY-2A (Class 4 human mAb) (antibody, V domains shown) VH: QVQLVEWGAGLLKPSETLSLTCAVYGGSFSGYYWSWIRQPPGKGLEWIGLINHSGSTNYNPSLKSRVTISLDTSKNQFSLKLTSVTAADTAVYYCARGLGIFGVVTLSDVWGQGTTVTVSS VL: NFMLTQPHSVSESPGKTVTISCTGSSGSIASNYVQWYQQRPGSAPTTVIYEDNQRPSGVPDRFSGSIDSSSNSASLTISGLRTEDEADYYCQSYDSGIWVFGGGTKLTVL", "values": [
      {"measurement": "binding result", "setting": "[2]", "value": "binds"}
    ]}
  ]
}
